Values of other authors in PMC8821138 (Food chemistry, 2021).

Settings: ref Parisi et al., 2020; Yagami et al., 2000

NaD1: defensin, literature example of digestion resistance (RECKTESNTFPGICITKPPCRKACISEKFTDGHCSKILRRCLCTKPC; UniProt Q8GTM0 26-72, looked up)
Resistance in in vitro gastrointestinal digestions: demonstrated resistance
